Source: publication PMC7939443

Tests used:
[1] = molecular target: human poly(C)-binding protein 2 (PCBP2), full length, wild type (human) (UniProt Q15366); experiment: AUC
[2] = molecular target: human poly(C)-binding protein 2 (PCBP2), full length, wild type (human) (UniProt Q15366); experiment: SAXS
nsp1β WT;PCBP2 WT [3] = molecular target: T1, nsp1β WT;PCBP2 WT (PRRSV isolate SD01-08 (Betaarterivirus …, UniProt Q04561;Q15366 181-385;1-365, |)); experiment: EMSA; conditions: protein: recombinant;recombinant; tags: GST tag removed with HRV 3C protease;N-terminal polyHis; copies: 1;1; single strand
T1 sequence (Q15366 whole entry, one chain of several): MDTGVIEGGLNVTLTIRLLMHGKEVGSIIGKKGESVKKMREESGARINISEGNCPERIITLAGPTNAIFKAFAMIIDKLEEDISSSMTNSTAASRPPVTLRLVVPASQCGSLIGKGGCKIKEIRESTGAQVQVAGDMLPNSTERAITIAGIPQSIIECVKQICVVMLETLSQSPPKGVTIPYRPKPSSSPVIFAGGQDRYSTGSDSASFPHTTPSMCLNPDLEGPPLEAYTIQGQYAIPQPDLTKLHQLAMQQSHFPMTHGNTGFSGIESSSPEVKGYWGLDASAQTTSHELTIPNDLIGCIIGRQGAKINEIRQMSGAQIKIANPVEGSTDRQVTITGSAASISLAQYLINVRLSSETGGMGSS

PCBP2 WT [4] = molecular target: T2, PCBP2 WT (Homo sapiens, UniProt Q15366 1-365); experiment: EMSA; no appreciable binding at 28-fold molar excess; conditions: protein: recombinant; tags: N-terminal polyHis; single strand
T2 sequence (Q15366 whole entry): as the sequence (Q15366 whole entry, one chain of several) above

nsp1β WT = molecular target: T3, nsp1β WT (PRRSV isolate SD01-08 (Betaarterivirus …, UniProt Q04561 181-385)); experiment: EMSA; up to 20-fold molar excess; conditions: protein: recombinant; tags: GST tag removed with HRV 3C protease; single strand
T3 sequence: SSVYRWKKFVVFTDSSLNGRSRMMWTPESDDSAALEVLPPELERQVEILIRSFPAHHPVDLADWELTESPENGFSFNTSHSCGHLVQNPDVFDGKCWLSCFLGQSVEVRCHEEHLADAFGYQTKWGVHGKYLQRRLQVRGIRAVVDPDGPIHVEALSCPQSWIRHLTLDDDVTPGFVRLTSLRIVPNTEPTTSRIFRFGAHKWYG

PCBP2 WT [5] = molecular target: T2, PCBP2 WT; experiment: EMSA; seen from 8-fold, strong at 20-fold molar excess; conditions: protein: recombinant; tags: N-terminal polyHis; single strand
nsp1β WT;PCBP2 WT [6] = molecular target: T1, nsp1β WT;PCBP2 WT; experiment: EMSA; supershift relative to PCBP2 alone; complex also purified by SEC; conditions: protein: recombinant;recombinant; tags: GST tag removed with HRV 3C protease;N-terminal polyHis; copies: 1;1; single strand
nsp1β WT;PCBP2 WT [7] = molecular target: T1, nsp1β WT;PCBP2 WT; experiment: EMSA; large molar excess of both proteins; conditions: protein: recombinant;recombinant; tags: GST tag removed with HRV 3C protease;N-terminal polyHis; copies: 1;1; single strand

Sequence of human poly(C)-binding protein 2 (PCBP2), full length, wild type (human) (Q15366 whole entry): as the sequence (Q15366 whole entry, one chain of several) above
Sequence of PRRSV nonstructural protein 1β (nsp1β), isolate SD01-08, wild type (natural protein) (A0MD28 181-385 limits assumed): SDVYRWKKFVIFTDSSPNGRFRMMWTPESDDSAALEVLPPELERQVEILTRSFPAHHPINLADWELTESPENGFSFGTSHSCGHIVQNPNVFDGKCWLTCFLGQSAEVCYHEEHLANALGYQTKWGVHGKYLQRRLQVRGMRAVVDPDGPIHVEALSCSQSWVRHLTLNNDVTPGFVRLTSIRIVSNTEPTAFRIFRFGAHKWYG

Work on “PRRSV nonstructural protein 1β (nsp1β), isolate SD01-08, wild type (natural protein)” yielded a stoichiometry N [1] of 1 and a stoichiometry N [2] of 1.

GGGUUUUUGAAGUUUACUCCCAUCUCCCAGCUUU (ssRNA) [34-nt PRRSV ssRNA]: binds (nsp1β WT;PCBP2 WT [3]); no binding (PCBP2 WT [4]).

GGGTTTTTGAAGTTTACTCCCATCTCCCAGCTTT (ssDNA) [34-nt PRRSV ssDNA]: no binding (nsp1β WT); binds (PCBP2 WT [5]); binds (nsp1β WT;PCBP2 WT [6]).

GGGTTTTTGAAGTTTACTGAAATATGGCAGCTTT (ssDNA) [34-nt CC2 ssDNA]: no binding (nsp1β WT;PCBP2 WT [7]).
